Source: publication PMC9071465

Assays:
[1] = biological target: At-HIGLE (HYL-1 Interacting GIY-YIG Like Endonuclease) from Arabidopsis thaliana, full length (Arabidopsis thaliana); test: SEC; Sephacryl 16/60 S-200, 20 mM Tris-HCl (pH 8.5), 5% glycerol, 5 mM beta-mercaptoethanol, 0.5 M NaCl; calibrated with gel filtration markers; oligomeric state from a standard curve
[2] = biological target: At-HIGLE^184-368 (C-terminal region of At-HIGLE) (Arabidopsis thaliana); test: SEC; Sephacryl 16/60 S-100, 20 mM Tris-HCl (pH 8.5), 5% glycerol, 5 mM beta-mercaptoethanol, 0.5 M NaCl; calibrated with gel filtration markers; oligomeric state from a standard curve

Row | stoichiometry N [1] | stoichiometry N [2] | Substance
1 | 2 |  | At-HIGLE (HYL-1 Interacting GIY-YIG Like Endonuclease) from Arabidopsis thaliana, full length (enzyme)
2 |  | 2 | At-HIGLE^184-368 (C-terminal region of At-HIGLE) (domain or fragment)
